The results in this text go back to patent US20200399343A1.

Experiment [1] concerns the target major histocompatibility complex (MHC) Class I.
Experiment [2] shares this target. The source holds these as a separate data set.

For the molecule K5, the MHC Class I expression (MFI HLA A/B/C) on transduced Jurkat cells (MFI HLA A/B/C) in experiment [1] worked out at 661. This molecule also came in with an MHC Class I expression (MFI HLA A/B/C) on transduced primary T cells (MFI HLA A/B/C) in experiment [2] of 4480.
As to US3, the MHC Class I expression (MFI HLA A/B/C) on transduced Jurkat cells (MFI HLA A/B/C) in experiment [1] amounted to 5320. In experiment [2], this molecule displayed an MHC Class I expression (MFI HLA A/B/C) on transduced primary T cells (MFI HLA A/B/C) of 13000.
For K3, in that order: 2170 and 10900.

B1: E19 (protein)
chain: TTQKVDFKEPACNVTFAAEANECTTLIKCTTEHEKLLIRHKNKIGKYAVYAIWQPGDTTEYNVTVFQGKSHKTFMYTFPFYEMCDITMYMSKQYKLWPPQNCVENTGTFCCTAMLITVLALVCTLLYIKYKSRRSFIEEKKMP
Regarding B1, in experiment [1], the MHC Class I expression (MFI HLA A/B/C) on transduced Jurkat cells (MFI HLA A/B/C) was found to be 3430. For the same molecule, the MHC Class I expression (MFI HLA A/B/C) on transduced primary T cells (MFI HLA A/B/C) in experiment [2] was 14800.

B2: US11 (protein)
chain: MPELSLTLFDEPPPLVETEPLPPLSDVSEYRVEYSEARCVLRSGGRLEALWTLRGNLSVPTPTPRVYYQTLEGYADRVPTPVEDVSESLVAKRYWLRDYRVPQRTKLVLFYFSPCHQCQTYYVECEPRCLVPWVPLWSSLEDIERLLFEDRRLMAYYALTIKSAQYTLMMVAVIQVFWGLYVKGWLHRHFPWMFSDQW
As to B2, the MHC Class I expression (MFI HLA A/B/C) on transduced Jurkat cells (MFI HLA A/B/C) in experiment [1] is 8080. The molecule further registered an MHC Class I expression (MFI HLA A/B/C) on transduced primary T cells (MFI HLA A/B/C) in experiment [2] of 14600.

B3: US2 (protein)
chain: MNNLWKAWVGLWTSMGPLIRLPDGITKAGEDALRPWKSTAKHPWFQIEDNRCYIDNGKLFARGSIVGNMSRFVFDPKADYGGVGENLYVHADDVEFVPGESLKWNVRNLDVMPIFETLALRLVLQGDVIWLRCVPELRVDYTSSAYMWNMQYGMVRKSYTHVAWTIVFYSINITLLVLFIVYVTVDCNLSMMWMRFFVC
Molecule B3 showed an MHC Class I expression (MFI HLA A/B/C) on transduced Jurkat cells (MFI HLA A/B/C) in experiment [1] of 6080. The molecule also yielded an MHC Class I expression (MFI HLA A/B/C) on transduced primary T cells (MFI HLA A/B/C) in experiment [2] of 14500.

B4: US6 (protein)
chain: ERSSRDPKTLLSLSPRQQACVPRTKSHRPVCYNDTGDCTDADDSWKQLGEDFAHQCLQAAKKRPKTHKSRPNDRNLEGRLTCQRVRRLLPCDLDIHPSHRLLTLMNNCVCDGAVWNAFRLIERHGFFAVTLYLCCGITLLVVILALLCSITYESTGRGIRR
The molecule B4 yielded an MHC Class I expression (MFI HLA A/B/C) on transduced Jurkat cells (MFI HLA A/B/C) in experiment [1] of 1720. This molecule also came in with an MHC Class I expression (MFI HLA A/B/C) on transduced primary T cells (MFI HLA A/B/C) in experiment [2] of 9500.

B5: ICP47 (protein)
chain: MSWALEMADTFLDTMRVGPRTYADVRDEINKRGREDREAARTAVHDPERPLLRSPGLLPEIAPNASLGVAHRRTGGTVTDSPRNPVTR
B5 gave an MHC Class I expression (MFI HLA A/B/C) on transduced Jurkat cells (MFI HLA A/B/C) in experiment [1] of 2060. Also, the MHC Class I expression (MFI HLA A/B/C) on transduced primary T cells (MFI HLA A/B/C) in experiment [2] is 5940.
